According to US10704056B2, “Constitutively active ABA receptor mutants” (The Regents of the University of California, priority 2011, dated 2020):

T1: ABI1 (Arabidopsis thaliana, UniProt P49597)
T1 construct: Full length ABI1 and ABI2 were cloned into a modified pSUMO vector; made in house; host or cells: E. coli BL21 (DE3) pLysS
T1 sequence (P49597 1-434): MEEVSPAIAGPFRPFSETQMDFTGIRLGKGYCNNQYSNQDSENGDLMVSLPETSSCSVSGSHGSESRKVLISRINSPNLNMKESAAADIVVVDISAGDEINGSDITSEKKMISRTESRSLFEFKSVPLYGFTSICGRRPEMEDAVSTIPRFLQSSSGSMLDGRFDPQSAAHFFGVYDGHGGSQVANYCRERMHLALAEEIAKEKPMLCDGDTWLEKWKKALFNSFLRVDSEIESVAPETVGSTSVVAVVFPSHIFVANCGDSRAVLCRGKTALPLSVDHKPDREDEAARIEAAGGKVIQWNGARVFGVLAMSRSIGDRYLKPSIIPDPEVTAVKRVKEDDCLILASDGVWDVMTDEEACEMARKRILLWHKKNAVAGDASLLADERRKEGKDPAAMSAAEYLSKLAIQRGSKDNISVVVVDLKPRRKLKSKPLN

T2: ABI2 (Arabidopsis thaliana, UniProt O04719)
T2 construct: Full length ABI1 and ABI2 were cloned into a modified pSUMO vector; made in house; host or cells: E. coli BL21 (DE3) pLysS
T2 sequence (O04719 1-423): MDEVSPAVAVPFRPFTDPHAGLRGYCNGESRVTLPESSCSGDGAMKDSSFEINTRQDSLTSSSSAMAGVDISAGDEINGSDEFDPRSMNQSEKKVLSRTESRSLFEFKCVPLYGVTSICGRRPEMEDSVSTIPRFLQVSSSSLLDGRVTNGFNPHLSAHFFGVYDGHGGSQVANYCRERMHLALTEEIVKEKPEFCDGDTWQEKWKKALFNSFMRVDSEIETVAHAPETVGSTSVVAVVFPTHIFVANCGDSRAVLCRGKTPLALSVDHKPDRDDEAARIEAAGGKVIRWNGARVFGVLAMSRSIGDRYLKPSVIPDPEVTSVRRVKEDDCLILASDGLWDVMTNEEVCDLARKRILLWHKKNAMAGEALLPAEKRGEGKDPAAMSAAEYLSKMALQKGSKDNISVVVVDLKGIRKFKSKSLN


Assays:
[1] = test system: HAB1; assay: In vitro PP2C phosphatase (pNPP) receptor activation assay with HAB1; type: biochemical, Arabidopsis; conditions: 600 nM GST-HAB1, 0-4800 nM receptor, no ABA
Method: Recombinant receptor proteins were produced as follows: Coding sequences were cloned into pET28 yielding 6×HIS (SEQ ID NO:173) fusions proteins and transformed into E. coli expression strain BL21. […]. Cells were stored at −80° C. before purification. After thawing, cells were sonicated on ice five times for 30 sec with 30 sec resting intervals. A cleared lysate was obtained after centrifugation at 12,000×g for 10 min and applied to 1 ml of Ni-NTA column (Qiagen) and washed with 20 column volumes of Buffer A containing 30 mM imidazole. Bound protein was eluted with 10 ml of Buffer A with 250 mM imidazole. The elutate was dialyzed against TBS. The purified recombinant proteins were then used together with recombinant phosphatases in receptor assays. In these assays, receptor activity is indicated by inhibition of phosphatase activity, as inferred from initial reaction velocities for GST-HAB1 mediated hydrolysis of the synthetic phosphatase substrate pNPP. Reactions contained 600 nM GST-HAB1 and either 0, 600, 1200, 2400 or 4800 nM 6×His-PYR1 or variants in a reaction buffer consisting of 33 mM Tris-OAc, pH 7.9, 66 mM KOAc, 0.1% BSA, 25 mM Mn(OAc)2, 50 mM pNPP. To infer the level of receptor activation with respect to fully activated wild type receptor, control reactions were also conducted using saturating levels of (+)-ABA (10 μM), and 600 nM wild type PYR1 and HAB1. Immediately after mixing proteins and substrates, reactions were monitored for hydrolysis of pNPP at A405 at ˜10 second intervals over 20 minutes using a Wallac plate reader. Reaction progressions were plotted, initial velocities calculated and converted to specific activities using a standard curve for 4-nitrophenol made in the same buffer system volumes/plate reader used for enzymatic reaction measurements. The values shown are expressed as %-control phosphatase activity levels as measured in the absence of receptor protein. The average specific activity level of GST-HAB1 utilized in our experiments was 4000 μmol/min/mg, when assayed on the phosphatase substrate pNPP in the absence of PYR1 or other receptors, as described using the methods above.
(§1) Full length ABI1 and ABI2 were cloned into a modified pSUMO vector (LifeSensors Inc, USA) vector yielding 6×His-SUMO fusion proteins; GST-HAB1 was expressed and purified as previously described (Park et al., 2009). Mutant receptors were cloned into pET28 yielding 6×His-fusion proteins. […]. The cultures were pre-incubated 2 hours at 30° C. and, for PP2C expression, media was supplemented with 4 mM MnCl2 one hour after inoculation. After pre-incubation, IPTG was added (1 mM) and cells were induced at 15° C. for 16 hours, after which they were collected by centrifugation, resuspended in 5 ml Buffer A (50 mM NaH2PO4, 300 mM NaCl) +10 mM imidazole, pH 8.0 and stored at −80° C. For purification, cells were thawed, sonicated on ice (60 seconds) and a cleared lysate was then applied a 1 ml-bed volume column of Ni-NTA (Qiagen, USA), washed with 20 column volumes of Buffer A+30 mM imidazole and bound protein eluted with 1 ml of Buffer A+250 mM imidazole. For receptors, the elutate was dialyzed against TBS and for PP2Cs, fusion proteins were desalted by passage over a Sephadex G50 column.
The purified receptors and phosphatases were then used in receptor assays where receptor activation is indicated by inhibition of phosphatase activity, as inferred from initial reaction velocities for PP2C-mediated hydrolysis of the synthetic phosphatase substrate pNPP in reactions containing 600 nM PP2C and either 0, 600, 1200, 2400 or 4800 nM receptor. The receptor assay buffer consisted of 33 mM Tris-OAc, pH 7.9, 66 mM KOAc, 0.1% BSA, 25 mM Mn(OAc)2, 0.1%13-ME and 50 mM pNPP. Immediately after mixing proteins and substrates, reactions were monitored for hydrolysis of pNPP at A405 at ˜2 minutes intervals using a Wallac plate reader. […]

[2] = biological target: T1, ABI1; assay: In vitro PP2C phosphatase (pNPP) receptor activation assay with ABI1; type: biochemical; conditions: 600 nM PP2C, 0-4800 nM receptor, no ABA
Method: as §1
(§2) The purified receptors and phosphatases were then used in receptor assays where receptor activation is indicated by inhibition of phosphatase activity, as inferred from initial reaction velocities for PP2C-mediated hydrolysis of the synthetic phosphatase substrate pNPP in reactions containing 600 nM PP2C and either 0, 600, 1200, 2400 or 4800 nM receptor. The receptor assay buffer consisted of 33 mM Tris-OAc, pH 7.9, 66 mM KOAc, 0.1% BSA, 25 mM Mn(OAc)2, 0.1%13-ME and 50 mM pNPP. Immediately after mixing proteins and substrates, reactions were monitored for hydrolysis of pNPP at A405 at ˜2 minutes intervals using a Wallac plate reader. Reaction progressions were plotted, initial velocities calculated and converted to specific activities by comparison to a standard curve for 4-nitrophenol made in the same buffer system. PP2C activity values shown in figures are expressed as %-control phosphatase activity levels, as measured under identical reaction conditions in the absence of receptor protein. The average specific activity level of GST-HAB1, 6×His-SUMO-ABI1 and 6×His-SUMO-ABI2 utilized in our experiments was 4500 (GST-PP2C) or 2500 (SUMO-PP2C) μmol/min/mg, when assayed using the phosphatase substrate pNPP in the absence of PYR1 or other receptors.

[3] = biological target: T2, ABI2; assay: In vitro PP2C phosphatase (pNPP) receptor activation assay with ABI2; type: biochemical; conditions: 600 nM PP2C, 0-4800 nM receptor, no ABA
Method: as §1, §2

Molecule	basal receptor activity (inhibition of HAB1 phosphatase activity in the absence of ABA) [1]	constitutive receptor activity on ABI1 in the absence of ABA [2]	constitutive receptor activity on ABI2 in the absence of ABA [3]
PYL9^CA4: PYL9 mutant (V85F, Y160I, F161V) (protein) HHHHHHMMDGVEGGTAMYGGLETVQYVRTHHQHLCRENQCTSALVKHIKAPLHLVWSLVRRFDQPQKYKPFVSRCTVIGDPEIGSLREVNFKSGLPATTSTERLELLDDEEHILGIKIIGGDHRLKNYSSILTVHPEIIEGRAGTMVIESFVVDVPQGNTKDETCIVVEALIRCNLKSLADVSERLASQDITQ	highly activated in the absence of ABA	active towards multiple PP2Cs	active towards multiple PP2Cs
PYR1^CA3: PYR1 triple mutant (H60P, V83F, F159V) (protein) HHHHHHMPSELTPEERSELKNSIAEFHTYQLDPGSCSSLHAQRIHAPPELVWSIVRRFDKPQTYKPFIKSCSVEQNFEMRVGCTRDVIFISGLPANTSTERLDILDDERRVTGFSIIGGEHRLTNYKSVTTVHRFEKENRIWTVVLESYVVDMPEGNSEDDTRMVADTVVKLNLQKLATVAEAMARNSGDGSGSQVT	dramatically increased basal PYR1 activity	interact with ABI1 and ABI2	interact with ABI1 and ABI2
PYR1^CA4: PYR1 quadruple mutant (H60P, V83F, F159V, M158I) (protein) HHHHHHMPSELTPEERSELKNSIAEFHTYQLDPGSCSSLHAQRIHAPPELVWSIVRRFDKPQTYKPFIKSCSVEQNFEMRVGCTRDVIFISGLPANTSTERLDILDDERRVTGFSIIGGEHRLTNYKSVTTVHRFEKENRIWTVVLESYVVDMPEGNSEDDTRIVADTVVKLNLQKLATVAEAMARNSGDGSGSQVT	dramatically increased basal PYR1 activity	interact with ABI1 and ABI2	interact with ABI1 and ABI2
M158I: PYR1 receptor mutant with amino acid substitution M158I (protein, synthetic mutated PYR/PYL receptor polypeptide PYR1 M158I) MPSELTPEERSELKNSIAEFHTYQLDPGSCSSLHAQRIHAPPELVWSIVRRFDKPQTYKHFIKSCSVEQNFEMRVGCTRDVIVISGLPANTSTERLDILDDERRVTGFSIIGGEHRLTNYKSVTTVHRFEKENRIWTVVLESYVVDMPEGNSEDDTRIFADTVVKLNLQKLATVAEAMARNSGDGSGSQVT	increase basal activity of receptors		
F159V: PYR1 receptor mutant with amino acid substitution F159V (protein, synthetic mutated PYR/PYL receptor polypeptide PYR1 F159V) MPSELTPEERSELKNSIAEFHTYQLDPGSCSSLHAQRIHAPPELVWSIVRRFDKPQTYKHFIKSCSVEQNFEMRVGCTRDVIVISGLPANTSTERLDILDDERRVTGFSIIGGEHRLTNYKSVTTVHRFEKENRIWTVVLESYVVDMPEGNSEDDTRMVADTVVKLNLQKLATVAEAMARNSGDGSGSQVT	increase basal activity of receptors		
T162F: PYR1 receptor mutant with amino acid substitution T162F (protein, synthetic mutated PYR/PYL receptor polypeptide PYR1 T162F) MPSELTPEERSELKNSIAEFHTYQLDPGSCSSLHAQRIHAPPELVWSIVRRFDKPQTYKHFIKSCSVEQNFEMRVGCTRDVIVISGLPANTSTERLDILDDERRVTGFSIIGGEHRLTNYKSVTTVHRFEKENRIWTVVLESYVVDMPEGNSEDDTRMFADFVVKLNLQKLATVAEAMARNSGDGSGSQVT	increase basal activity of receptors		
PYL2^CA4: PYL2 mutant (H65P, V87F, M1641, F165V) (protein) HHHHHHMSSSPAVKGLTDEEQKTLEPVIKTYHQFEPDPTTCTSLITQRIHAPASVVWPLIRRFDNPERYKPFVKRCRLISGDGDVGSVREVTFISGLPASTSTERLEFVDDDHRVLSFRVVGGEHRLKNYKSVTSVNEFLNQDSGKVYTVVLESYTVDIPEGNTEEDTKIVVDTVVKLNLQKLGVAATSAPMHDDE	highly activated in the absence of ABA	active towards multiple PP2Cs	active towards multiple PP2Cs
